# Key:
# [1] = target: RopB-CTD Y224H (Streptococcus pyogenes (group A Streptococcus) strain MGAS10870); test: SEC
# [2] = target: RopB-CTD R226A (Streptococcus pyogenes (group A Streptococcus) strain MGAS10870); test: SEC
# [3] = target: RopB C-terminal domain (RopB-CTD, amino acids 56-280), wild type (Streptococcus pyogenes (group A Streptococcus) strain MGAS10870); test: SEC
# [4] = target: RopB-CTD R226Q (Streptococcus pyogenes (group A Streptococcus) strain MGAS10870); test: SEC
# [5] = target: RopB-CTD C227Y (Streptococcus pyogenes (group A Streptococcus) strain MGAS10870); test: SEC
# [6] = target: RopB-CTD C222A (Streptococcus pyogenes (group A Streptococcus) strain MGAS10870); test: SEC
# [7] = target: full-length RopB (Streptococcus pyogenes (group A Streptococcus) strain MGAS10870)
# [8] = target: RopB-CTD Y224A (Streptococcus pyogenes (group A Streptococcus) strain MGAS10870); test: SEC
# [9] = target: RopB-CTD I255A (Streptococcus pyogenes (group A Streptococcus) strain MGAS10870); test: SEC
substance,measurement,setting,value
RopB-CTD Y224H (domain or fragment),stoichiometry N,[1],2
RopB-CTD R226A (domain or fragment),stoichiometry N,[2],2
"RopB C-terminal domain (RopB-CTD, amino acids 56-280), wild type (domain or fragment)",stoichiometry N,[3],2
RopB-CTD R226Q (domain or fragment),stoichiometry N,[4],2
RopB-CTD C227Y (domain or fragment),stoichiometry N,[5],2
RopB-CTD C222A (domain or fragment),stoichiometry N,[6],2
full-length RopB (natural protein),stoichiometry N,[7],> 6
RopB-CTD Y224A (domain or fragment),stoichiometry N,[8],2
RopB-CTD I255A (domain or fragment),stoichiometry N,[9],2

# Source: PMC4794775
